The record followed here is PMC6775164.

For assay [1], the target named is P74-26 decoration protein (gene product 87) (bacteriophage P74-26). Description: cryo-EM structure; single-particle reconstruction of the capsid of purified P74-26 virions with icosahedral symmetry imposed; virions in 50 mM Tris pH 8.0, 10 mM NaCl, 10 mM MgCl2; 2.8 Å (0.143 FSC).
The target of assay [2] is P74-26 major capsid protein (gene product 86) (bacteriophage P74-26). The assay is described as above.

“And” between values parts separate entries of the source, which are not always exact repeats. Equal entries are not always repeated.

As a reminder, the stoichiometry N is a count of units in the complex or per binding partner. “P74-26 decoration protein (gene product 87) (natural protein)”: the stoichiometry N in assay [1] was 3. With “P74-26 major capsid protein (gene product 86) (natural protein)”, the stoichiometry N in assay [2] was 5 and 6.
